Experimental findings from patent US20250327050 are described below.

Numbering of substitutions follows the chain as printed.

Series [1] has as its system T1, MBP-ZC3H14 full-length S475A mutant.
T1 sequence: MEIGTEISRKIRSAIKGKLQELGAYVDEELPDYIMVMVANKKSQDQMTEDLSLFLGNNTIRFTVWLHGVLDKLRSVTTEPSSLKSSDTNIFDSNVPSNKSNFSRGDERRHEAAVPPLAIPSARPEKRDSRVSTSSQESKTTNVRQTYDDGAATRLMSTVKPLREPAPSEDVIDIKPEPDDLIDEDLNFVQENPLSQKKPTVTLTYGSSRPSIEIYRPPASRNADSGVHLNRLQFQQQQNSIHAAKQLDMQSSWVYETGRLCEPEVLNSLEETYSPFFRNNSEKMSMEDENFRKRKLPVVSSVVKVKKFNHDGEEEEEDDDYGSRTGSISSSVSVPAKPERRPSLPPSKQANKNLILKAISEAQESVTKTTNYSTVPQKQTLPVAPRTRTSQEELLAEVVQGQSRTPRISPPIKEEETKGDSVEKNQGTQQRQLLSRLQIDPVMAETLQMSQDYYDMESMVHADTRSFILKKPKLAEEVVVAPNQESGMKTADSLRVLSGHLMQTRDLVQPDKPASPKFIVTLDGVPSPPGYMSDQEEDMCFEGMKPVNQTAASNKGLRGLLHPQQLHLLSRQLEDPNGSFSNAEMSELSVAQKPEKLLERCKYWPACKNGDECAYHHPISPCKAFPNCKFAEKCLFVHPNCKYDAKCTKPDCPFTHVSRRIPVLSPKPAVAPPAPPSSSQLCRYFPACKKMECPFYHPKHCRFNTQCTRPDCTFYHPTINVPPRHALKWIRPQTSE

In series [2] the test system is T2, MBP-ZC3H14 full-length wildtype (residues 1-736).
T2 sequence: T1 sequence with A475S

As for “Cdk13 (694-1039) / Cyclin T1 (1-272, T149E) kinase complex”, in series [1], the anti-thiophosphorylation immunoblot result is “CDK13 directly phosphorylates ZC3H14 WT but not ZC3H14 S475A” and the “in vitro kinase assay P32 counts per minute minus time zero” value is “CDK13 directly phosphorylates ZC3H14 WT but not ZC3H14 S475A”. In series [2], the anti-thiophosphorylation immunoblot result is on record as “CDK13 directly phosphorylates ZC3H14 WT but not ZC3H14 S475A” and the “in vitro kinase assay P32 counts per minute minus time zero” value is given as “CDK13 directly phosphorylates ZC3H14 WT but not ZC3H14 S475A”.
